According to PMC7966800, “Adiponectin-expressing Treg facilitate T lymphocyte development in thymic nurse cell complexes” (Communications Biology, 2021):
Values joined by “and” are separate entries in the source; they are usually repeats but may differ in a detail not shown here. Equal entries are not always repeated.

Biological target: the molecule itself
Assay: non-reducing SDS-PAGE with Western blotting; thymus lysate of WT mice; non-reducing SDS-PAGE, polyclonal antibody to murine adiponectin

B1: Adiponectin (natural protein, mouse (endogenous in thymus), UniProt Q60994 18-247, looked up)
chain: EDDVTTTEELAPALVPPPKGTCAGWMAGIPGHPGHNGTPGRDGRDGTPGEKGEKGDAGLLGPKGETGDVGMTGAEGPRGFPGTPGRKGEPGEAAYVYRSAFSVGLETRVTVPNVPIRFTKIFYNQQNHYDGSTGKFYCNIPGLYYFSYHITVYMKDVKVSLFKKDKAVLFTYDQYQEKNVDQASGSVLLHLEVGDQVWLQVYGDGDHNGLYADNVNDSTFTGFLLYHDTN
notes: adiponectin, mouse, endogenous protein of thymus and thymic nurse cell (TNC) complexes; found as trimer, hexamer and HMW oligomers; Endogenous secreted glycoprotein; detected with a polyclonal antibody against murine adiponectin; also called Adn; ADIPOQ; source: endogenous, thymus tissue and TNC complexes of wild-type mice, in lysate
- stoichiometry N: 3 and 6
